Test results as given in EP4417623A1 (Fundació Institut de Recerca Contra la Leucèmia Josep …, dated 2024).
Where no end group is shown, it is not given here.

Experiments:
Peptide 3: SSMEDYVNFN-C = target: T1, Peptide 3: SSMEDYVNFN-C (not fully specified; printed as SSMEDYVNFN-C); test: peptide ELISA titration, OD450
T1 peptide: SSMEDYVNFNC

Peptide 4: SMEDYVNFNF-C = target: T2, Peptide 4: SMEDYVNFNF-C (not fully specified; printed as SMEDYVNFNF-C); test: peptide ELISA titration, OD450
T2 peptide: SMEDYVNFNFC

[1] = target: T3, CCR9 peptide #1 MADDYGSESTSSMEDYVNFNF-C (human, extra C-terminal Cys for BSA conjugation (coated as non-conjugated or BSA-conjugated peptide)); test: ELISA screening against the immunisation peptide
T3 construct: This is the immunisation peptide; It was conjugated to BSA for the ELISA screenings; also called MADDY peptide; complete antigen peptide
T3 peptide: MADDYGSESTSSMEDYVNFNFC

Measured: binding result

B1: anti-CCR9 antibody clone 115 (antibody, V domains shown)
VH: QVQLKQSGPELVKPGTSVRVSCTASGYSFTDYIIYWVKQSHGRSLEWIGYIDPNNYNTRYSQKFKGKATLTVDKSSTSAFMHLNSLTSDDSAVYYCARDVYWGQGTTLTVSS
VL: DVVMTQTPLSLTVSLGDQASISCRSSQSLVHSNGKTYLQWYLQKPGQSPKLLIYKVSNRFSGVPDRFSGSGSGTDFTLKISRVEAEDLGVYFCAQSTHVWTFGGGTKLEIKR
notes: Murine monoclonal antibody, isotype IgG1; It was tested as hybridoma supernatant in the FACS screening and as Protein A/G purified antibody in the ELISA
binds: all assays above
